Measured values from paper PMC8386582 (Biomaterials, 2020).

Molecular target: CD19 (Homo sapiens (Raji, SU-DHL-7 cells), UniProt P15391)
Experiment: flow cytometry on cells

Chain of CD19 (P15391 20-556): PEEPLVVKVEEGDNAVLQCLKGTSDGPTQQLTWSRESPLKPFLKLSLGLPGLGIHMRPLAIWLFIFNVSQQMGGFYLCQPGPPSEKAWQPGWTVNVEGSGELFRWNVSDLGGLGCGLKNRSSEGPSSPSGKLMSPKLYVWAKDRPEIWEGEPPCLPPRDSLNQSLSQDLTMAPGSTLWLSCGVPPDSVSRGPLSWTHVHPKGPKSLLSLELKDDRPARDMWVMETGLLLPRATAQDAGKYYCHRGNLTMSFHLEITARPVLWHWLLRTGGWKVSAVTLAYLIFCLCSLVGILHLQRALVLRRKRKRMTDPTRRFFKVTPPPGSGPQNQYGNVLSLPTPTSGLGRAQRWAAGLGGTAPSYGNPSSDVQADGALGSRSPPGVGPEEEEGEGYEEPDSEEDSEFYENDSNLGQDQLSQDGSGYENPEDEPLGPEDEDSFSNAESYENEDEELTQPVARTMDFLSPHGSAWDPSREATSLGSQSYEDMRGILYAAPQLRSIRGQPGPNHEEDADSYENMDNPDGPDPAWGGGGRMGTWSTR

binding result: binds
B1: aCD19A (anti-CD19-A192) Nanoworm (scFv, V domains shown)
VH: QVQLQQSGAELVRPGSSVKISCKASGYAFSSYWMNWVKQRPGQGLEWIGQIWPGDGDTNYNGKFKGKATLTADESSSTAYMQLSSLASEDSAVYFCARRETTTVGRYYYAMDYWGQGTTVTVSS
VL: DIQLTQSPASLAVSLGQRATISCKASQSVDYDGDSYLNWYQQIPGQPPKLLIYDASNLVSGIPPRFSGSGSGTDFTLNIHPVEKVDAATYHCQQSTEDPWTFGGGTKLEIK
